Reference: IntAct's records for PubMed 24705553

B1: Autophagy-related protein 34 (Saccharomyces cerevisiae), Q12292 (parent)
chain: MKIAVETTLFDFFVIDQFKKSTFSAPNTKVDTIKGCINKFIEQFNVYDEQHIFWQPPGKSNVRLLSNANDFGQLGNFLHKKIKCNIFIGEEALRKYDLNICGPYDKFVENSDPSVKKVVNRDDVMLSRKCLNIISEQLSILEKSISKAQNQVLQSSEVEGKKCIILPEDKPELIKFFSKFETSVQLQEVYEGYKVYEKLLQKFGGQKKRMESFLNENTPMSGAEAIKQINISEELKEKGERLTTPNDPLLHVEVSNEDNSLHFILYNKTNIIIPGNCTFEFSSQISEVFSIKMGPHEIGIKGQKELWFFPSLPTPLSNYTMKVVNQDGETILVGKCADSNEITLKSPLASFSTGSFQTGSFHTLQDPTNVFRADALSSPDESSIMSTPFLGETDEVYNSGSTLSRPFTWEEI
partner: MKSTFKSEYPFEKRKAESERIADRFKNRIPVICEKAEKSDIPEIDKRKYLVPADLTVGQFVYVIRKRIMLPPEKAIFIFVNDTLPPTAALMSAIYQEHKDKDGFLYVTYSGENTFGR
B2: Autophagy-related protein 19 (Saccharomyces cerevisiae), P35193 (parent)
chain: MNNSKTNQQMNTSMGYPLTVYDECNKFQLIVPTLDANIMLWCIGQLSLLNDSNGCKHLFWQPNDKSNVRILLNNYDYGHLFKYLQCQRKCSVYIGEGTLKKYNLTISTSFDNFLDLTPSEEKESLCREDAHEDPVSPKAGSEEEISPNSTSNVVVSRECLDNFMKQLLKLEESLNKLELEQKVTNKEPNHRISGTIDIPEDRSELVNFFTELKTVKQLEDVFQRYHDYERLSQECDSKTEIASDHSKKETKIEVEPPNERSLQITMNQRDNSLYFQLFNNTNSVLAGNCKLKFTDAGDKPTTQIIDMGPHEIGIKEYKEYRYFPYALDLEAGSTIEIENQYGEVIFLGKYGSSPMINLRPPSRLSAESLQASQEPFYSFQIDTLPELDDSSIISTSISLSYDGDDNEKALTWEEL
partner: B1 partner

Variants of: B1
Settings: with atg8_yeast ATG8, P38182
With W409A the “effect of a mutation on the interaction” value was “disrupting interaction strength”.

Variants of: B2
Settings: with atg8_yeast ATG8, P38182
W412A was tested, and the “effect of a mutation on the interaction” value was “decreasing interaction strength”.

Variants of: B2
Settings: with atg8_yeast ATG8, P38182
Remark: another data set of the same source
For F376A;F379A;W412A, the “effect of a mutation on the interaction” value was “decreasing interaction strength”.
F376A;F379A;P385A;E386A;W412A was tested, and the “effect of a mutation on the interaction” value was “decreasing interaction strength”.
In the case of F376A;F379A, the “effect of a mutation on the interaction” value is reported as “decreasing interaction strength”.

Variants of: B2
Settings: with atg8_yeast ATG8, P38182
Remark: another data set of the same source
In the case of F376A;F379A;W412A, the “effect of a mutation on the interaction” value is reported as “disrupting interaction strength”.

Variants of: B2
Settings: with atg8_yeast ATG8, P38182
Remark: another data set of the same source
With F376A;F379A;P385A;E386A;W412A the “effect of a mutation on the interaction” value was “disrupting interaction strength”.
For F379A;W412A, the “effect of a mutation on the interaction” value was “decreasing interaction strength”.
In the case of P385A;E386A;W412A, the “effect of a mutation on the interaction” value is reported as “decreasing interaction strength”.
